Laboratory results published in publication PMC12416549 (2024).

T1: TNFR1 (Homo sapiens, UniProt P19438)
T1 chain: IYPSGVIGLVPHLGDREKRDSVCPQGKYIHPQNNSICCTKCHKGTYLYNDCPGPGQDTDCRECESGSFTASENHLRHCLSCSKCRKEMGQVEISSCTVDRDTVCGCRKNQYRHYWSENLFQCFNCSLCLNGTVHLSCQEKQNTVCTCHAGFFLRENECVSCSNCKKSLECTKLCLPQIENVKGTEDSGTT


Molecular target: T1, TNFR1
Assay: yeast display SC50

apparent Kd (screen) [nM]	Binder
0.49	K27F (designed binder) SMEEEVEKAAKEYEKKKKEAIEKHLEFLKAKDKEAAERFLKELEEAAKEYAKDEAKTMSEEEAKRRAKKYKEKVLLSELSEEEQKEIKEAEEKLVRTILKYVEEAAK
6.43	M58I (designed binder) SMEEEVEKAAKEYEKKKKEAIEKHLEKLKAKDKEAAERFLKELEEAAKEYAKDEAKTISEEEAKRRAKKYKEKVLLSELSEEEQKEIKEAEEKLVRTILKYVEEAAK
12.5	E3I (designed binder) SMIEEVEKAAKEYEKKKKEAIEKHLEKLKAKDKEAAERFLKELEEAAKEYAKDEAKTMSEEEAKRRAKKYKEKVLLSELSEEEQKEIKEAEEKLVRTILKYVEEAAK
1.69	K17L (designed binder) SMEEEVEKAAKEYEKKLKEAIEKHLEKLKAKDKEAAERFLKELEEAAKEYAKDEAKTMSEEEAKRRAKKYKEKVLLSELSEEEQKEIKEAEEKLVRTILKYVEEAAK
0.446	L40S (designed binder) SMEEEVEKAAKEYEKKKKEAIEKHLEKLKAKDKEAAERFSKELEEAAKEYAKDEAKTMSEEEAKRRAKKYKEKVLLSELSEEEQKEIKEAEEKLVRTILKYVEEAAK
1.54	E72G (designed binder) SMEEEVEKAAKEYEKKKKEAIEKHLEKLKAKDKEAAERFLKELEEAAKEYAKDEAKTMSEEEAKRRAKKYKGKVLLSELSEEEQKEIKEAEEKLVRTILKYVEEAAK
7.07	E14S (designed binder) SMEEEVEKAAKEYSKKKKEAIEKHLEKLKAKDKEAAERFLKELEEAAKEYAKDEAKTMSEEEAKRRAKKYKEKVLLSELSEEEQKEIKEAEEKLVRTILKYVEEAAK
12.5	L99R (designed binder) SMEEEVEKAAKEYEKKKKEAIEKHLEKLKAKDKEAAERFLKELEEAAKEYAKDEAKTMSEEEAKRRAKKYKEKVLLSELSEEEQKEIKEAEEKLVRTIRKYVEEAAK
2.25	S77T (designed binder) SMEEEVEKAAKEYEKKKKEAIEKHLEKLKAKDKEAAERFLKELEEAAKEYAKDEAKTMSEEEAKRRAKKYKEKVLLTELSEEEQKEIKEAEEKLVRTILKYVEEAAK
0.956	K15A (designed binder) SMEEEVEKAAKEYEAKKKEAIEKHLEKLKAKDKEAAERFLKELEEAAKEYAKDEAKTMSEEEAKRRAKKYKEKVLLSELSEEEQKEIKEAEEKLVRTILKYVEEAAK
3	A10W (designed binder) SMEEEVEKAWKEYEKKKKEAIEKHLEKLKAKDKEAAERFLKELEEAAKEYAKDEAKTMSEEEAKRRAKKYKEKVLLSELSEEEQKEIKEAEEKLVRTILKYVEEAAK
0.593	A47G (designed binder) SMEEEVEKAAKEYEKKKKEAIEKHLEKLKAKDKEAAERFLKELEEAGKEYAKDEAKTMSEEEAKRRAKKYKEKVLLSELSEEEQKEIKEAEEKLVRTILKYVEEAAK
0.653	E104Y (designed binder) SMEEEVEKAAKEYEKKKKEAIEKHLEKLKAKDKEAAERFLKELEEAAKEYAKDEAKTMSEEEAKRRAKKYKEKVLLSELSEEEQKEIKEAEEKLVRTILKYVEYAAK
0.49	A10K (designed binder) SMEEEVEKAKKEYEKKKKEAIEKHLEKLKAKDKEAAERFLKELEEAAKEYAKDEAKTMSEEEAKRRAKKYKEKVLLSELSEEEQKEIKEAEEKLVRTILKYVEEAAK
0.49	K52R (designed binder) SMEEEVEKAAKEYEKKKKEAIEKHLEKLKAKDKEAAERFLKELEEAAKEYARDEAKTMSEEEAKRRAKKYKEKVLLSELSEEEQKEIKEAEEKLVRTILKYVEEAAK
1.69	E81D (designed binder) SMEEEVEKAAKEYEKKKKEAIEKHLEKLKAKDKEAAERFLKELEEAAKEYAKDEAKTMSEEEAKRRAKKYKEKVLLSELSDEEQKEIKEAEEKLVRTILKYVEEAAK
11.4	Q84A (designed binder) SMEEEVEKAAKEYEKKKKEAIEKHLEKLKAKDKEAAERFLKELEEAAKEYAKDEAKTMSEEEAKRRAKKYKEKVLLSELSEEEAKEIKEAEEKLVRTILKYVEEAAK

apparent Kd (screen) [nM]	Binder
0.653	E81L (designed binder) SMEEEVEKAAKEYEKKKKEAIEKHLEKLKAKDKEAAERFLKELEEAAKEYAKDEAKTMSEEEAKRRAKKYKEKVLLSELSLEEQKEIKEAEEKLVRTILKYVEEAAK
0.446	K16H (designed binder) SMEEEVEKAAKEYEKHKKEAIEKHLEKLKAKDKEAAERFLKELEEAAKEYAKDEAKTMSEEEAKRRAKKYKEKVLLSELSEEEQKEIKEAEEKLVRTILKYVEEAAK
0.446	E62F (designed binder) SMEEEVEKAAKEYEKKKKEAIEKHLEKLKAKDKEAAERFLKELEEAAKEYAKDEAKTMSEEFAKRRAKKYKEKVLLSELSEEEQKEIKEAEEKLVRTILKYVEEAAK
1.27	Y101Q (designed binder) SMEEEVEKAAKEYEKKKKEAIEKHLEKLKAKDKEAAERFLKELEEAAKEYAKDEAKTMSEEEAKRRAKKYKEKVLLSELSEEEQKEIKEAEEKLVRTILKQVEEAAK
1.54	K8W (designed binder) SMEEEVEWAAKEYEKKKKEAIEKHLEKLKAKDKEAAERFLKELEEAAKEYAKDEAKTMSEEEAKRRAKKYKEKVLLSELSEEEQKEIKEAEEKLVRTILKYVEEAAK
0.446	K88C (designed binder) SMEEEVEKAAKEYEKKKKEAIEKHLEKLKAKDKEAAERFLKELEEAAKEYAKDEAKTMSEEEAKRRAKKYKEKVLLSELSEEEQKEICEAEEKLVRTILKYVEEAAK
1.4	E72Y (designed binder) SMEEEVEKAAKEYEKKKKEAIEKHLEKLKAKDKEAAERFLKELEEAAKEYAKDEAKTMSEEEAKRRAKKYKYKVLLSELSEEEQKEIKEAEEKLVRTILKYVEEAAK
12.5	A51I (designed binder) SMEEEVEKAAKEYEKKKKEAIEKHLEKLKAKDKEAAERFLKELEEAAKEYIKDEAKTMSEEEAKRRAKKYKEKVLLSELSEEEQKEIKEAEEKLVRTILKYVEEAAK
0.446	K69I (designed binder) SMEEEVEKAAKEYEKKKKEAIEKHLEKLKAKDKEAAERFLKELEEAAKEYAKDEAKTMSEEEAKRRAKIYKEKVLLSELSEEEQKEIKEAEEKLVRTILKYVEEAAK
0.49	E62S (designed binder) SMEEEVEKAAKEYEKKKKEAIEKHLEKLKAKDKEAAERFLKELEEAAKEYAKDEAKTMSEESAKRRAKKYKEKVLLSELSEEEQKEIKEAEEKLVRTILKYVEEAAK
0.446	A20M (designed binder) SMEEEVEKAAKEYEKKKKEMIEKHLEKLKAKDKEAAERFLKELEEAAKEYAKDEAKTMSEEEAKRRAKKYKEKVLLSELSEEEQKEIKEAEEKLVRTILKYVEEAAK
0.593	K41H (designed binder) SMEEEVEKAAKEYEKKKKEAIEKHLEKLKAKDKEAAERFLHELEEAAKEYAKDEAKTMSEEEAKRRAKKYKEKVLLSELSEEEQKEIKEAEEKLVRTILKYVEEAAK
1.27	K100R (designed binder) SMEEEVEKAAKEYEKKKKEAIEKHLEKLKAKDKEAAERFLKELEEAAKEYAKDEAKTMSEEEAKRRAKKYKEKVLLSELSEEEQKEIKEAEEKLVRTILRYVEEAAK
0.49	E103S (designed binder) SMEEEVEKAAKEYEKKKKEAIEKHLEKLKAKDKEAAERFLKELEEAAKEYAKDEAKTMSEEEAKRRAKKYKEKVLLSELSEEEQKEIKEAEEKLVRTILKYVSEAAK
16.7	V74N (designed binder) SMEEEVEKAAKEYEKKKKEAIEKHLEKLKAKDKEAAERFLKELEEAAKEYAKDEAKTMSEEEAKRRAKKYKEKNLLSELSEEEQKEIKEAEEKLVRTILKYVEEAAK
10.4	E49K (designed binder) SMEEEVEKAAKEYEKKKKEAIEKHLEKLKAKDKEAAERFLKELEEAAKKYAKDEAKTMSEEEAKRRAKKYKEKVLLSELSEEEQKEIKEAEEKLVRTILKYVEEAAK
